# Measurements reported in patent publication US20230355720A1, “PHARMACEUTICAL COMPOSITION FOR PREVENTING OR TREATING BONE DISEASES, COMPRISING TRIPLE AGONIST OR CONJUGATE THEREOF HAVING ACTIVITY WITH RESPECT TO ALL OF GLUCAGON, GLP-1 AND GLP RECEPTORS” (HANMI PHARM. CO., LTD., priority 2020, published 2023).
# Bridge positions count the residues as written; N and C are the ends. Square brackets hold non-standard residues; d marks the D form. Ends that are not written are not given here. Aib = CC(C)(N)C(=O)O
# Key:
# MC3T3-E1 osteoblasts [1] = assay: ColA1 protein in medium of MC3T3-E1 osteoblasts (collagen assay kit); assay type: cell-based; conditions: co-treatment with GIP inhibitor (10 μM or 100 μM), 7 days (FIG. 4)
# Protocol: MC3T3-E1 osteoblasts were dispensed into 12-well plates at 100,000 cells/well and incubated for 24 hours using a medium containing 10% fetal bovine serum. […] The long-acting GIP used in the present invention was prepared by the same method as in the long-acting conjugate of the triple agonist illustrated in Example 2, wherein the long-acting GIP is in a form in which immunoglobulin Fc was linked to GIP analog via PEG, and the GIP inhibitor is GIP 3-30, in which the N-terminus was absent in native GIP.
# After 7 days, the incubated medium was collected, and ColA1 in the medium was quantified using a collagen assay kit (Biocolor) according to the manufacturer's instructions.
# Statistical analysis was performed by one-way ANOVA to compare between the control group and the test groups.
# MC3T3-E1 osteoblasts [2] = assay: Cell viability of MC3T3-E1 osteoblasts under fetal bovine serum deficiency; assay type: cell-based; conditions: co-treatment with conjugate (2 μM) and GIP inhibitor 0.31, 1.25, 5, 20 μM; dose-dependent manner (FIG. 5)
# Protocol: MC3T3-E1 osteoblasts were dispensed into 96-well plates at 10,000 cells/well and incubated for 24 hours using a medium containing 10% fetal bovine serum. The medium in a normal group was replaced with a medium containing 10% bovine fetal serum, and the medium in each of the test groups was replaced with a medium containing no bovine fetal serum. […] The medium in each of the normal group and test groups was replaced, and after 48 hours, the cells were further incubated. Thereafter, the cell viability was analyzed using a collagen assay kit (Biocolor) according to the manufacturers instructions. The GIP inhibitor is GIP 3-30, in which the N-terminus region was absent in native GIP.
# human GCG receptor = human GCG receptor (human, UniProt P47871 26-477); assay: cell-based or functional assay
# Chain of human GCG receptor (P47871 26-477): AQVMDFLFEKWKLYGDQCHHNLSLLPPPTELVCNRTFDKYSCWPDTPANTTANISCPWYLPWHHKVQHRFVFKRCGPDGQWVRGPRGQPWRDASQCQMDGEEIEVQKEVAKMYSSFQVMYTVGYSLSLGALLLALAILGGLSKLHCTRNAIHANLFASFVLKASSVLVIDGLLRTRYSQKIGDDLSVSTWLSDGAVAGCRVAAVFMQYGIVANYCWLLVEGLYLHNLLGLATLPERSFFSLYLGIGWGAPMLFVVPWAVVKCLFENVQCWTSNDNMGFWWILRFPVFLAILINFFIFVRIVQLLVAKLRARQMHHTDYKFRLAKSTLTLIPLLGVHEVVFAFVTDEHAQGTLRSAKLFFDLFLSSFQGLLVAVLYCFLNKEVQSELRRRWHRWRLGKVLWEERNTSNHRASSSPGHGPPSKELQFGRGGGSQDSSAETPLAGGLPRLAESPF
# human GIP receptor = biological target: T1, human GIP receptor (human, UniProt P48546 22-466); assay: cell-based or functional assay
# T1 sequence (looked up): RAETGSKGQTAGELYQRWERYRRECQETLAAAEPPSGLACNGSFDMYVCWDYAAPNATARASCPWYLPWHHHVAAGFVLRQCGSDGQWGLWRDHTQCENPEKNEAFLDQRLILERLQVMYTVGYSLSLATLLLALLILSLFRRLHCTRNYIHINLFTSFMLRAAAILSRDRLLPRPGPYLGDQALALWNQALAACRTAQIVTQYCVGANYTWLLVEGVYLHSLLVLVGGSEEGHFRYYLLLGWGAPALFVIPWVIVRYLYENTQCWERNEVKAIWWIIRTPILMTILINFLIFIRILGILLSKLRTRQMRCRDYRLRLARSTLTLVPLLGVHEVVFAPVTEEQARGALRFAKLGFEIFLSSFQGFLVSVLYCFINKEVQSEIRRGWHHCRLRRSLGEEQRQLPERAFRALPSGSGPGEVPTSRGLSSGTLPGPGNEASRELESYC
# human GLP-1 receptor = human GLP-1 receptor (human, UniProt P43220 24-463); assay: cell-based or functional assay
Molecule,effect of the long-acting conjugate of SEQ ID NO: 42 on the expression of ColA1 protein (MC3T3-E1 osteoblasts [1]),cell viability increased by the long-acting conjugate of SEQ ID NO: 42 (MC3T3-E1 osteoblasts [2]),"In vitro activity (%) compared with native peptide, vs Glucagon (human GCG receptor) [%]","In vitro activity (%) compared with native peptide, vs GIP (human GIP receptor) [%]","In vitro activity (%) compared with native peptide, vs GLP-1 (human GLP-1 receptor) [%]"
"GIP 3-30 (EGTFISDYSIAMDKIHQQDFVNWLLAQK; Gastric inhibitory polypeptide; UniProt P09681 54-81, looked up, fragment) [GIP inhibitor, GIP 3-30, in which the N-terminus was absent in native GIP, reference compound]",reduced,reduced,–,–,–
H[Aib]QGTFTSDYSKYLDEKAAKEFVQWLLNTC (bridge 16-20; not fully specified) [triple agonist of SEQ ID NO: 29],–,–,6,< 0.1,38.5
H[Aib]QGTFTSDYSIAMDEIHQKDFVNWLLAQKC (bridge 16-20; not fully specified) [triple agonist of SEQ ID NO: 33],–,–,< 0.1,10.4,24.5
H[Aib]QGTFTSDYSKYLDEKACKDFVQWLLDGGPSSGAPPPS (bridge 16-20; not fully specified) [triple agonist of SEQ ID NO: 32],–,–,1.7,8.8,151
H[Aib]QGTFTSDYSKYLDEKACKEFVQWLLAQ (bridge 16-20) [triple agonist of SEQ ID NO: 31],–,–,2.2,2.4,135
